Assay results published in patent US20230348881.

Legend:
[1] = system: wild-type PPE proprotein as used in Example 2
[2] = system: exemplary modified PPE proproteins

Sequence of wild-type PPE proprotein as used in Example 2 (chain, as listed by the source): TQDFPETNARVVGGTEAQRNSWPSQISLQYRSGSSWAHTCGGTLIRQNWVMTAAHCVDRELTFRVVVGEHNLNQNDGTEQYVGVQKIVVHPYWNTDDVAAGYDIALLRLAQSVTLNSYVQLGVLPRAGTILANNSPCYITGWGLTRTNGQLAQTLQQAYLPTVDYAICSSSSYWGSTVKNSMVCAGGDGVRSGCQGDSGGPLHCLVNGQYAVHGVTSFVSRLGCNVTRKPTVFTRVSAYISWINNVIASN

How did the “catalytic activity after protease digestion (colorimetric substrate assay), FIG. 4B” value [1] turn out when purified trypsin was run?
The value was “the wild-type PPE protein was catalytically-active after incubation with trypsin”.

And the “protease cleavage by SDS-PAGE and Coomassie blue staining” value [1]?
Its value is “trypsin cleaved the wild-type PPE as a control”.

What about the “catalytic activity after protease digestion (colorimetric substrate assay), FIG. 4B” value [2] of the same substance?
Its value is “catalytically-inactive after incubation with trypsin or no protease”.
